Here are results for nine sequences from the Immune Epitope Database (IEDB).

For one assay, the target named is HLA-A*24:03. The assay can be described thus: IEDB peptide-MHC binding, purified MHC/competitive/fluorescence; filed as Kd, often an IC50 or EC50 that approximates it; ≥ and ≤ were set here for values at or beyond the usual limits of such assays.
The target of assay [1] is HLA-B*44:02. Description: IEDB peptide-MHC binding, purified MHC/competitive/radioactivity; filed as Kd, often an IC50 or EC50 that approximates it; ≥ and ≤ were set here for values at or beyond the usual limits of such assays. As to conditions: source organism: Dengue virus 1 Brazil/97-11/1997.
The target in assay [2] is HLA-B*58:01. The assay is described as above.
The next assay deals with HLA-A*01:01. Description: IEDB peptide-MHC binding, purified MHC/direct/fluorescence; filed as Kd, often an IC50 or EC50 that approximates it; ≥ and ≤ were set here for values at or beyond the usual limits of such assays.
A further assay concerns the target HLA-A*02:01. Described as above.
Assay [3] addresses HLA-A*03:01. The description is as above.
A further assay concerns the target HLA-A*11:01. The description is as above.
Another assay concerns the target HLA-A*24:02. The assay is described as above.
Another assay deals with HLA-A*31:01. The description is as above.
For assay [4], the target named is HLA-A*69:01. The description is as above.
The target in the next assay is HLA-B*07:02. The description is as above.
For the next assay, the target named is HLA-B*08:01. The assay is described as above.
Another assay addresses HLA-B*08:02. The assay is described as above.
The target in assay [5] is HLA-B*15:01. Described as above.
The target in a further assay is HLA-B*27:05. The assay is described as above.
Assay [6] has as its target HLA-B*39:01. The description is as above. To be noted: source organism: H9N2 subtype Influenza A virus (A/swine/Korea/S83/2004(H9N2)).
A further assay concerns the target HLA-B*40:01. The assay is described as above.
Assay [7] deals with HLA-B*44:02. The description is as above.
Assay [8] addresses HLA-B*46:01. The assay is described as above.
The target of assay [9] is HLA-B*58:01. The assay is described as above.
The target of the next assay is HLA-A*02:19. Description: IEDB peptide-MHC binding, purified MHC/competitive/fluorescence; filed as Kd, often an IC50 or EC50 that approximates it; ≥ and ≤ were set here for values at or beyond the usual limits of such assays. To be noted: source organism: Mycobacterium tuberculosis variant bovis BCG str. Pasteur 1173P2.
In assay [10] the target is HLA-A*03:01. Described as above. As to conditions: source organism: Mycobacterium tuberculosis variant bovis BCG str. Pasteur 1173P2.
In assay [11] the target is HLA-A*26:01. The assay is described as above. To be noted: source organism: Mycobacterium tuberculosis variant bovis BCG str. Pasteur 1173P2.
The target of a further assay is HLA-A*29:02. Described as above. As to conditions: source organism: Mycobacterium tuberculosis variant bovis BCG str. Pasteur 1173P2.
In a further assay the target is HLA-A*68:02. The description is as above. To be noted: source organism: Mycobacterium tuberculosis variant bovis BCG str. Pasteur 1173P2.
Assay [12] has as its target HLA-A*69:01. The description is as above. As to conditions: source organism: Mycobacterium tuberculosis variant bovis BCG str. Pasteur 1173P2.
Assay [13] addresses HLA-B*15:01. Described as above. As to conditions: source organism: Mycobacterium tuberculosis variant bovis BCG str. Pasteur 1173P2.
The target of another assay is HLA-B*15:17. Described as above. To be noted: source organism: Mycobacterium tuberculosis variant bovis BCG str. Pasteur 1173P2.
For assay [14], the target named is HLA-B*18:01. Described as above. To be noted: source organism: Mycobacterium tuberculosis variant bovis BCG str. Pasteur 1173P2.
Another assay has as its target HLA-B*27:03. Described as above. To be noted: source organism: Mycobacterium tuberculosis variant bovis BCG str. Pasteur 1173P2.
Assay [15] deals with HLA-B*39:01. The description is as above. To be noted: source organism: Mycobacterium tuberculosis variant bovis BCG str. Pasteur 1173P2.
In assay [16] the target is HLA-B*46:01. The assay is described as above. To be noted: source organism: Mycobacterium tuberculosis variant bovis BCG str. Pasteur 1173P2.
The target in the next assay is HLA-B*51:01. The description is as above. To be noted: source organism: Mycobacterium tuberculosis variant bovis BCG str. Pasteur 1173P2.
A further assay deals with HLA-B*57:01. The assay is described as above. As to conditions: source organism: Mycobacterium tuberculosis variant bovis BCG str. Pasteur 1173P2.
The target in assay [17] is HLA-A*26:01. Description: IEDB peptide-MHC binding, purified MHC/direct/fluorescence; filed as Kd, often an IC50 or EC50 that approximates it; ≥ and ≤ were set here for values at or beyond the usual limits of such assays.
For assay [18], the target named is HLA-B*18:01. The assay is described as above. As to conditions: source organism: Influenza A virus (A/chicken/Vietnam/393/2005(H5N1)).
Another assay has as its target HLA-A*30:01. The description is as above. As to conditions: source organism: Yersinia pestis.
The mark [19] stands for this setting: source organism: H9N2 subtype Influenza A virus (A/swine/Korea/S83/2004(H9N2)).
The mark [20] stands for this setting: source organism: Influenza A virus (A/Puerto Rico/8/34/Mount Sinai(H1N1)).
Setting [21] is: source organism: Influenza A virus (A/chicken/Vietnam/393/2005(H5N1)).
The mark [22] stands for this setting: source organism: Influenza A virus(A/swine/Shandong/fNY/2003(H9N2)).
[23] abbreviates: source organism: Yersinia pestis.

Broadly, the Kd is a measure of binding affinity in units of concentration. Regarding CYPGYFADY, in the assay with HLA-A*24:03 (source organism: Influenza A virus (A/Harbin/1/1988(H1N2))), the Kd is ≤ 0.001 µM.

With ERSWNSGYDW, the figures for the Kd with HLA-B*44:02 [1] and in the assay with HLA-B*58:01 [2] (source organism: Dengue virus 1 Brazil/97-11/1997) were 0.856 µM and 0.0956 µM, respectively.

HFQKDAKVL: the Kd with HLA-A*01:01 (setting [19]), in the assay with HLA-A*02:01 (setting [19]), in the assay with HLA-A*03:01 [3] (setting [19]), in the assay with HLA-A*11:01 (setting [19]), with HLA-A*24:02 (setting [19]) and with HLA-A*31:01 (setting [19]) was ≥ 20 µM throughout. Besides, the Kd was ≥ 20 µM in the assay with HLA-A*69:01 [4] (setting [19]); ≥ 20 µM in the assay with HLA-B*07:02 (setting [19]); 2.3 µM with HLA-B*08:01 (setting [20]); ≥ 20 µM with HLA-B*08:02 (source organism: Influenza A virus(A/swine/Shandong/fZC/2003(H9N2))); 2.66 µM with HLA-B*15:01 [5] (setting [20]); ≥ 20 µM in the assay with HLA-B*27:05 (setting [19]). Also, the Kd is 10.4 µM in the assay with HLA-B*39:01 [6]; ≥ 20 µM in the assay with HLA-B*40:01 (setting [19]); ≥ 20 µM with HLA-B*44:02 [7] (setting [19]); ≥ 20 µM in the assay with HLA-B*46:01 [8] (setting [19]); ≥ 20 µM with HLA-B*58:01 [9] (setting [19]).

On to KHVQRIETW, for which the Kd with HLA-B*58:01 [2] (source organism: Dengue virus 2 Jamaica/1409/1983) amounted to 0.145 µM.

As to LASAILNAHK, the Kd with HLA-B*58:01 [2] (source organism: Dengue virus 4 Dominica/814669/1981) is 3.46 µM.

As for RLAPEPVYT, the Kd with HLA-A*02:19 was 0.0932 µM; with HLA-A*03:01 [10] it was ≥ 20 µM; with HLA-A*24:03 (source organism: Mycobacterium tuberculosis variant bovis BCG str. Pasteur 1173P2) it was ≥ 20 µM; with HLA-A*26:01 [11], ≥ 20 µM; with HLA-A*29:02, 3 µM; with HLA-A*68:02 it was ≥ 20 µM. Besides, the Kd with HLA-A*69:01 [12], in the assay with HLA-B*15:01 [13], with HLA-B*15:17, with HLA-B*18:01 [14], with HLA-B*27:03 and with HLA-B*39:01 [15] was ≥ 20 µM throughout. In addition, the Kd with HLA-B*46:01 [16], with HLA-B*51:01 and with HLA-B*57:01 was ≥ 20 µM throughout.

As for TAAVLLLITH, in the assay with HLA-B*58:01 [2] (source organism: Dengue virus 3 Martinique/1243/1999), the Kd came to 0.751 µM.

VLTGNLQTL: the Kd in the assay with HLA-A*01:01 (setting [21]), with HLA-A*03:01 [3] (setting [21]), with HLA-A*11:01 (setting [21]), with HLA-A*24:02 (setting [21]), with HLA-A*26:01 [17] (setting [22]) and in the assay with HLA-A*31:01 (setting [21]) was ≥ 20 µM each time. The Kd with HLA-A*69:01 [4] (setting [21]), with HLA-B*07:02 (setting [21]), in the assay with HLA-B*08:01 (setting [21]), in the assay with HLA-B*08:02 (setting [22]), in the assay with HLA-B*15:01 [5] (setting [21]) and in the assay with HLA-B*18:01 [18] was ≥ 20 µM in each case. In addition, the Kd with HLA-B*27:05 (setting [21]), with HLA-B*40:01 (setting [21]), with HLA-B*44:02 [7] (setting [21]), with HLA-B*46:01 [8] (setting [21]) and with HLA-B*58:01 [9] (setting [21]) was ≥ 20 µM in each case.

Consider YGLGSTPLY, for which the Kd with HLA-A*01:01 (setting [23]) is 14.1 µM; in the assay with HLA-A*02:01 (setting [23]), ≥ 20 µM; with HLA-A*03:01 [3] (setting [23]), ≥ 20 µM; with HLA-A*11:01 (setting [23]), ≥ 20 µM; with HLA-A*26:01 [17] (setting [23]) it was 5.87 µM; in the assay with HLA-A*30:01, 3.59 µM. For the same sequence, the Kd in the assay with HLA-A*31:01 (setting [23]) was ≥ 20 µM; in the assay with HLA-A*69:01 [4] (setting [23]), ≥ 20 µM; in the assay with HLA-B*07:02 (setting [23]), ≥ 20 µM; with HLA-B*08:01 (setting [23]) it was ≥ 20 µM; in the assay with HLA-B*15:01 [5] (setting [23]) it was 0.332 µM; with HLA-B*27:05 (setting [23]) it was ≥ 20 µM. Besides, the values for the Kd with HLA-B*40:01 (setting [23]), with HLA-B*44:02 [7] (setting [23]) and with HLA-B*58:01 [9] (setting [23]) were ≥ 20 µM, ≥ 20 µM and 10.4 µM, respectively.
